Laboratory results from patent US20220332804A1 (CSL INNOVATION, published 2022).
Changes are numbered by the printed parent chain.

Key:
Assay in all cases: SPR, antibody captured, C2 as analyte;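 note: biacore SPR at 37 °C, anti-C2 mAbs captured via goat anti-human IgG on CM5 chips, double-referenced sensorgrams fit to a 1:1 kinetic or steady-state model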
human C2 G707A = molecular target: T1, human C2 G707A (human, UniProt P06681 21-752)
T1 sequence: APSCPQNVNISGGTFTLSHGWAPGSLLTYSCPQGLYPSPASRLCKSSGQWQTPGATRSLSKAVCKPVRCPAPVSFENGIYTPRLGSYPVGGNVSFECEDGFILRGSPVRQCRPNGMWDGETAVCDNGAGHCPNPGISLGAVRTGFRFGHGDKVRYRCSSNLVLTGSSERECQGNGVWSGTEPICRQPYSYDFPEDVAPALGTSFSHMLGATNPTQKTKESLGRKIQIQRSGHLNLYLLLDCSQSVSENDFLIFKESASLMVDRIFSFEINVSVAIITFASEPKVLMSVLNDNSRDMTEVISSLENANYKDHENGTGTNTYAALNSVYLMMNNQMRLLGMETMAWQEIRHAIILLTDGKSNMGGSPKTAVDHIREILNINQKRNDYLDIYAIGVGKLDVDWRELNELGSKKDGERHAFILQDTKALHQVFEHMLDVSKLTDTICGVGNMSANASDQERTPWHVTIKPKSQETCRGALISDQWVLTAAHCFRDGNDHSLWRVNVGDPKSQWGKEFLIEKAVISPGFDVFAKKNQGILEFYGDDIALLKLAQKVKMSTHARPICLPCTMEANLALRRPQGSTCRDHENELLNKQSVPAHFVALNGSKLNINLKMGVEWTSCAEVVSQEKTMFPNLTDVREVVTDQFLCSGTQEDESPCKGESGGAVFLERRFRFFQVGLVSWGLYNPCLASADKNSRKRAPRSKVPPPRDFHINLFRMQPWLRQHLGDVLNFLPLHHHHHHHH

human C2 T442A = molecular target: T2, human C2 T442A (human, UniProt P06681 21-752)
T2 sequence: T1 sequence with T422A, A687G

human C2 K487A = molecular target: T3, human C2 K487A (human, UniProt P06681 21-752)
T3 sequence: T1 sequence with K467A, A687G

human C2 R510A = molecular target: T4, human C2 R510A (human, UniProt P06681 21-752)
T4 sequence: T1 sequence with R490A, A687G

B1: RF16-226 (antibody, human IgG4 S228P, lambda)
heavy: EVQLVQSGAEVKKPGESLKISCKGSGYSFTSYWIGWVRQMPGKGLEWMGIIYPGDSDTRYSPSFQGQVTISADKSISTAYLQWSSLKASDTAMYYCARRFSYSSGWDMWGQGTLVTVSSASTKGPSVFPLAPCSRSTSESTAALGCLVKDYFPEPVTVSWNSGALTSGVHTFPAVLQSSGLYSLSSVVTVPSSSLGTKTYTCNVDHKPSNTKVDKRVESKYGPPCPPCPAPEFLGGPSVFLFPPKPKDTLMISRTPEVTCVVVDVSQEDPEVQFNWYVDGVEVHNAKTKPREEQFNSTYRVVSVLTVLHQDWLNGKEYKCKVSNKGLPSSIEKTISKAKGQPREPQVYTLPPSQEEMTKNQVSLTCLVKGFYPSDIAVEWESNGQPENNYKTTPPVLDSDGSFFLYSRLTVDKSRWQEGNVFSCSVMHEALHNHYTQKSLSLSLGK
light: SYELTQPPSVSVSPGQTARITCSGDALTSKYVAWYQQKSGLAPLLVIYEDTRRPSGIPAKFSGSSSGSVATLTISGAHGDDEADYYCYSTDASGHQRVFGGGTKLTVLSQPKAAPSVTLFPPSSEELQANKATLVCLISDFYPGAVTVAWKADGSPVKAGVETTKPSKQSNNKYAASSYLSLTPEQWKSHRSYSCQVTHEGSTVEKTVAPTECS
notes: pH-dependent anti-C2 antibody from a phage display library; also called WT
Kd (human C2 G707A): 19.4 nM
Kd (human C2 T442A): 23.7 nM
Kd (human C2 K487A): 93 nM
Kd (human C2 R510A): 110 nM
